Biological target: CyOFP1
Assay: SEC; FPLC on Superdex 75 10/300 GL; elution in 20 mM Tris-HCl (pH 7.80), 200 mM NaCl; oligomeric state from the elution volume against molecular weight standards

stoichiometry N: 2
Substance: CyOFP1
